Measurements reported in paper PMC5874296, “A CTP Synthase Undergoing Stage-Specific Spatial Expression Is Essential for the Survival of the Intracellular Parasite Toxoplasma gondii” (Frontiers in Cellular and Infection Microbiology, 2018).

Experiments:
TgCTPS (CTP synthase) = target: T1, TgCTPS (CTP synthase) (Toxoplasma gondii, UniProt B9Q379); experiment: pyruvate kinase/lactate dehydrogenase-coupled assay with recombinant enzyme; assay type: biochemical
T1 sequence (B9Q379 1-652): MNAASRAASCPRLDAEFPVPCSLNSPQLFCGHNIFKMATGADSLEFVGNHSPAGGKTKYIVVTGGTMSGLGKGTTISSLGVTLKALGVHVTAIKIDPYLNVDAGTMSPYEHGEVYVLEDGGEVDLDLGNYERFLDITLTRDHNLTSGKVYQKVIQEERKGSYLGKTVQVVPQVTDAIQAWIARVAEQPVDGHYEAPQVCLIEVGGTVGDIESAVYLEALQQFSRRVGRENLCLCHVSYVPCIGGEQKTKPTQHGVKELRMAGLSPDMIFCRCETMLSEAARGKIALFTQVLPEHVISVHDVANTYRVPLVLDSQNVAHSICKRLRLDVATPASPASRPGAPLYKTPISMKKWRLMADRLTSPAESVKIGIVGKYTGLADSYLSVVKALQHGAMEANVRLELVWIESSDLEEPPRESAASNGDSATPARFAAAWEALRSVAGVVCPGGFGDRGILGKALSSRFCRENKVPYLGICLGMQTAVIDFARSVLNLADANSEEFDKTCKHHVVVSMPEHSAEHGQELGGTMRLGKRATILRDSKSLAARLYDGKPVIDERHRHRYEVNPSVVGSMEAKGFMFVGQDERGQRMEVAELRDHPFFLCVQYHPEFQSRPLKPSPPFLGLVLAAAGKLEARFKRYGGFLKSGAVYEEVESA

[1] = substrate: Nc1ncnc2c1ncn2[C@@H]1O[C@H](COP(=O)(O)OP(=O)(O)OP(=O)(O)O)[C@@H](O)[C@H]1O; experiment: steady-state kinetics, coupled enzyme assay (Km); assay type: biochemical, Toxoplasma gondii; details: Mg2+; 37.0 °C
[2] = substrate: NC(=O)CC[C@H](N)C(=O)O; experiment: steady-state kinetics, coupled enzyme assay (Km); assay type: biochemical, Toxoplasma gondii; details: Mg2+ negative cooperativity in the binding of L-glutamine to the active site; 37.0 °C
purified protein = substrate: O=c1ccn([C@@H]2O[C@H](COP(=O)(O)OP(=O)(O)OP(=O)(O)O)[C@@H](O)[C@H]2O)c(=O)[nH]1; experiment: purified protein; assay type: biochemical, Toxoplasma gondii; details: Mg2+

Molecule: [N-]=[N+]=CC(=O)CC[C@H](N)C(=O)O [DON, 6-diazo-5-oxo-L-norleucine]
- IC50 (TgCTPS (CTP synthase)): ~40 nM

B1: TgCTPS (CTP synthase) (Toxoplasma gondii) (protein)
chain: T1 sequence (B9Q379 1-652)
- Km [1]: 540 ± 50 µM
- kcat [1]: 36 s⁻¹
- kcat/Km [1]: 66700 M⁻¹ s⁻¹
- Km [2]: 260 ± 40 µM
- kcat [2]: 29.6 s⁻¹
- kcat/Km [2]: 114000 M⁻¹ s⁻¹
- K0.5 (purified protein): 0.47 ± 0.03 mM
